# Laboratory results as given in publication PMC10699557, “A recombinant approach for stapled peptide discovery yields inhibitors of the RAD51 recombinase” (Chemical Science, 2023).
# B1: GB1-SP7-His8, mock-stapled (linear) (peptide)
# chain: VNSSAFSGFCTASGKKLNVSCEALQKAVKLFSDIENIS
# modifications: not checked
# Target: HumRadA22
# Assay: fluorescence polarisation; competition: displacement of a fluorescently-labelled BRC4 repeat from HumRadA22; KD calculated from IC50; single titrations with three technical replicates at each point; mock (linear) samples with 500 uM TCEP
binder,measurement,value
B1,Kd,39 nM
